Measured values as given in US20170218047A1, “NOVEL FUSION PARTNERS FOR THE PURPOSE OF CRYSTALLIZING G-PROTEIN COUPLED RECEPTORS” (THE SCRIPS RESEARCH INSTITUTE, priority 2011, published 2017).

Tests used:
[1] = Fluorescence (CPM) thermostability assay of β2AR constructs; type: physicochemical; conditions: 100 μM timolol; for thermostability: more stable than β2AR-T4L: increase relative to β2AR-T4L; for thermostability: less stable relative to β2AR-T4L: decrease relative to β2AR-T4L
Procedure: N-[4-(7-diethylamino-4-methyl-3-coumarinyl)phenyl]maleimide (CPM) dye was purchased from Invitrogen and dissolved in DMSO (Sigma) at 4 mg/mL as the stock solution for future use. The stock solution was kept at −80° C. and was diluted 1:40 in dye dilution solution (10 mM buffer, 500 mM NaCl, 10% glycerol, 0.025% DDM and 0.005% CHS) before use. The thermal denaturation assay was performed with total volume of 200 μL sample in a quartz fluorometer cuvette (Starna Cells, Inc., Atascadero, Calif.). Receptor (4 μg) was diluted in the appropriate buffer solution to a final volume of 200 μL, 5 μL of the diluted dye was added to the protein solution and incubated for 30 min at 4° C. The mixed solution was transferred to the cuvette and the data were collected by a Cary Eclipse spectrofluorometer (Varian, USA) with a temperature ramping rate at 2° C./min. The excitation wavelength was 387 nm and the emission wavelength was 463 nm. All assays were performed over a temperature range starting from 20° C. and 95° C. The stability data were processed with GraphPad Prism program (GraphPad Prism, Graphpad Software, San Diego, Calif., USA). In order to determine the melting temperature (Tm), a Boltzmann sigmoidal equation was used to fit to the data.
The thermostability of the different β2AR constructs was then evaluated. Assays were carried out in the presence of 100 μM timolol to maintain receptor stability during heating. […] We thus selected β2AR-BRIL and β2AR rubredoxin for further crystallization studies.

[2] = Size exclusion chromatography (SEC) of purified S1P1-fusion partner proteins; type: physicochemical; conditions: presence or absence of ligand
Procedure: S1P1-fusion partner proteins (“S1P1 fusion receptors”) were purified from membranes by dodecyl-maltoside (DDM) extraction followed by immobilized metal affinity chromatography (IMAC) on Talon resin (Clontech) as detailed below. Frozen cellular membranes were thawed by adding room temperature lysis buffer to a total volume of 25 mL. The S1P1 receptor antagonist W146 was added to a final concentration of 125 μM. The mixture was allowed to incubate at room temperature for 1 hour to ensure complete saturation of the receptor with ligand followed by addition of iodoacetamide to a concentration of 1 mg/mL and an additional 1 hour incubation at 4° C. Receptor solubilization was initiated by addition of detergent and cholesteryl hemisuccinate (CHS) to achieve a final concentration of 0.5% DDM 0.1% CHS. The solubilization buffer consisted of the following mixture: 50 mM Hepes pH 7.5; 800 mM NaCl; 30 mM Imidazole; 0.1% DDM 0.02% CHS; 125 μM W146. […]
Eluted proteins were analyzed by size-exclusion chromatography (SEC) followed by SDS-PAGE. […] SEC fractions corresponding to S1P1-fusion partner proteins were evaluated separated by SDS-PAGE on a 10% gel and stained, confirming that each S1P1-fusion partner protein could be purified to near-homogeneity (data not shown).

In the case of “132AR-rubredoxin: β2-adrenergic receptor fused with rubredoxin, SEQ ID NO: 11”, the “thermostability: more stable than β2AR-T4L” value [1] is reported as “approximately 8 °C”.

For “S1P1-Bril: S1P1 receptor with cytochrome b562 RIL replacing part of ICL3, SEQ ID NO: 2”, the “stability by SEC (in words)” value [2] was “stable in the presence or absence of ligand”.

For “β2AR-flavodoxin: β2-adrenergic receptor fused with flavodoxin in place of T4L, SEQ ID NO: 13”, the “thermostability: less stable relative to β2AR-T4L” value [1] was “about 9 °C”.

With “β2AR-BRIL: β2-adrenergic receptor with cytochrome b562 RIL replacing the third intracellular loop, SEQ ID NO: 10” the “thermostability: more stable than β2AR-T4L” value [1] was “approximately 8 °C”.

With “β2AR xylanase: β2-adrenergic receptor fused with xylanase, SEQ ID NO: 12” the “thermostability: more stable than β2AR-T4L” value [1] was “about 3 °C”.

With “β2AR-C-term T4L: β2-adrenergic receptor fused with T4 lysozyme C-terminal fragment, SEQ ID NO: 9” the “thermostability: less stable relative to β2AR-T4L” value [1] was ~4 °C.
